The results in this text go back to patent US20070174009A1, “Methods and systems for analyzing a network of biological functions” (National Institute Of Advanced Industrial Science And …, priority 2004, published 2007).

Test [1] deals with human neuroblastoma SHSY5Y. As to the kind of experiment: Marker enzyme expression (ChAT, TH) in the presence of each ligand of the receptor tyrosine kinase. Format: cell-based. The note with it: SHSY5Y cells, ChAT vs TH, beta-actin control, FIG. 19. An excerpt:
Cholinergic neuron-like cells were identified by using anti-choline acetyltransferase antibody, and dopaminergic neuron-like cells were identified by using anti-tyrosine hydroxylase antibody, both of which are available from Clontech.
Next, the marker enzyme expression in the presence of each ligand of the receptor tyrosine kinase has been studied.

Test [2] has as its system human neuroblastoma SHSY5Y. The test can be described thus: Differentiation (neuritegenesis) of SH-SY5Y cells by RA or NGF. In kind it is cell-based. Particulars: SH-SY5Y culture with RA or NGF added, FIG. 13. As for the experimental part: Human neuroblastoma (SHSY5Y) cells were maintained in Eagle's minimum essential medium (EMEM) supplemented with 10% (v/v) foetal bovine serum (FBS), 2% (v/v) glutamine and 1% (v/v) penicillin/streptomycin (10% medium), hereafter referred to as growth medium. Cells were incubated at 37° C. in a humidified atmosphere of 5% carbon dioxide.
Differentiation has been performed according to Yamada Y. et al., Neurosci Lett. 2004 Jun. 24; 364(1):11-15. Briefly, 100 ng/ml of NGF or […] of retinoic acid was added to the culture medium differentiate the SHSY5Y cells. Usually, when retinoic acid is added, the cell differentiates into cholinergic neuron-like cell as exemplified in FIG. 13. When NGF is added, the cell differentiates into dopaminergic neuron-like cells as exemplified in FIG. 13.

With “FGF1: ligand of receptor tyrosine kinase FGFR1 [reference compound]”, the “Marker enzyme expression (ChAT, TH) in the presence of ligand” value (shortened to “Marker enzyme expression (ChAT, TH)”) in test [1] is given as “cholinergic”.

B1: NGF: NGF (Sigma 2.5 S #N-6009) (protein, UniProt P01139 122-241, looked up)
Beta-nerve growth factor: SSTHPVFHMGEFSVCDSVSVWVGDKTTATDIKGKEVTVLAEVNINNSVFRQYFFETKCRASNPVESGCRGIDSKHWNSYCTTTHTFVKALTTDEKQAAWRFIRIDTACVCVLSRKATRRG
modifications: 2.5S NGF
As for B1, in test [1], the “Marker enzyme expression (ChAT, TH)” value is “dopaminergic”. For the same molecule, the “Differentiation of SH-SY5Y cells” value in test [2] is recorded as “differentiated into doperminergia neuron-like cells”.

B2: Pehrin A3: ligand of receptor tyrosine kinases EPHA2 and EPHA3 (protein, UniProt P52797 23-214, looked up)
Ephrin-A3: QGPGGALGNRHAVYWNSSNQHLRREGYTVQVNVNDYLDIYCPHYNSSGVGPGAGPGPGGGAEQYVLYMVSRNGYRTCNASQGFKRWECNRPHAPHSPIKFSEKFQRYSAFSLGYEFHAGHEYYYISTPTHNLHWKCLRMKVFVCCASTSHSGEKPVPTLPQFTMGPNVKINVLEDFEGENPQVPKLEKSISG
On to B2, for which the “Marker enzyme expression (ChAT, TH)” value in test [1] is given as “dopaminergic”.

B3: BDNF: ligand of receptor tyrosine kinase NTRK2 (protein, UniProt P23560 19-247, looked up)
Neurotrophic factor BDNF …: APMKEANIRGQGGLAYPGVRTHGTLESVNGPKAGSRGLTSLADTFEHVIEELLDEDQKVRPNEENNKDADLYTSRVMLSSQVPLEPPLLFLLEEYKNYLDAANMSMRVRRHSDPARRGELSVCDSISEWVTAADKKTAVDMSGGTVTVLEKVPVSKGQLKQYFYETKCNPMGYTKEGCRGIDKRHWNSQCRTTQSYVRALTMDSKKRIGWRFIRIDTSCVCTLTIKRGR
Turning to B3, the “Marker enzyme expression (ChAT, TH)” value in test [1] is listed as “dopaminergic”.

B4: Ephrin B2: ligand of receptor tyrosine kinases EPHB1, EPHB2, EPHB3 (protein, UniProt P52799 28-333, looked up)
Ephrin-B2: IVLEPIYWNSSNSKFLPGQGLVLYPQIGDKLDIICPKVDSKTVGQYEYYKVYMVDKDQADRCTIKKENTPLLNCAKPDQDIKFTIKFQEFSPNLWGLEFQKNKDYYIISTSNGSLEGLDNQEGGVCQTRAMKILMKVGQDASSAGSTRNKDPTRRPELEAGTNGRSSTTSPFVKPNPGSSTDGNSAGHSGNNILGSEVALFAGIASGCIIFIVIIITLVVLLLKYRRRHRKHSPQHTTTLSLSTLATPKRSGNNNGSEPSDIIIPLRTADSVFCPHYEKVSGDYGHPVYIVQEMPPQSPANIYYKV
As for B4, the “Marker enzyme expression (ChAT, TH)” value in test [1] was “dopaminergic”.
